Three molecules from patent US20200332015A1 (NAMAB THERAPEUTICS, published 2020) can be followed below.

The Kd is the equilibrium constant for the complex coming apart. One may read the koff as the rate constant with which the complex falls apart. The kon is the rate constant with which the complex forms.

Assay [1] has as its target T1, human CD137 expressed on Jurkat cells (human, UniProt Q07011 24-255). Put plainly: cell-based or functional assay.
A further assay concerns the target T2, human serum albumin (human, UniProt P02768 25-609).
T2 construct: also called human SA; HSA
Put plainly: SPR T200, SA coupled to chip, pH 5.5. As for the experimental part:
(§1) Affinity of molecules to serum albumin (SA) of the different species was determined by SPR measurements using a Biacore T200 device (GE Healthcare). SA was directly coupled to a CM5 sensor chip (GE Healthcare) using amine coupling chemistry. […] The assay was run in a 1×PBS-Tween buffer at pH 5.5.

In another assay the target is T3, mouse serum albumin (mouse, UniProt P07724 25-608).
T3 construct: also called mouse SA; MSA
Put plainly: SPR T200, SA coupled to chip, pH 5.5. As for the experimental part:
as §1

Assay [2] deals with human PDL1-Fc chimeric protein (human, UniProt Q9NZQ7 19-238, limits assumed). Put plainly: SPR T200, antigen-Fc captured, molecule as analyte. The gist of the method: (§2)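 Biacore T200: anti-Fc antibody amine-coupled on CM5 chip captures chimeras of different species. Molecules injected as three-fold dilutions (0.12-90 nM) for 3 min, dissociation 10 min, 3 M MgCl₂ regeneration. Apparent ka, kd and KD from 1:1 Langmuir fit.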

For assay [3], the target named is T4, Fc tagged human CD137 (R&D Systems, cat. 838-4B-100) (human, UniProt Q07011 24-186).
T4 construct: also called CD137 Fc chimera; human CD137-Fc chimeric protein
Nature of the assay: SPR T200, antigen-Fc captured, molecule as analyte. The method, boiled down: as §2

Assay [4] has as its target T1, human CD137 expressed on Jurkat cells. Nature of the assay: cell-based or functional assay. The source holds these as a separate data set.
Assay [5] has the same target. Nature of the assay: cell-based or functional assay. The source holds these as a separate data set.
For assay [6] the target is unchanged. Nature of the assay: cell-based or functional assay. The source holds these as a separate data set.
Assay [7] deals with T5, cynomolgus monkey Fc-tagged CD137 (R&D Systems, cat. 9324-4B-100) (cynomolgus monkey, UniProt A9YYE7 24-186).
T5 construct: also called cynomolgus CD137-Fc chimeric protein
T5 sequence (A9YYE7 entry or part of it): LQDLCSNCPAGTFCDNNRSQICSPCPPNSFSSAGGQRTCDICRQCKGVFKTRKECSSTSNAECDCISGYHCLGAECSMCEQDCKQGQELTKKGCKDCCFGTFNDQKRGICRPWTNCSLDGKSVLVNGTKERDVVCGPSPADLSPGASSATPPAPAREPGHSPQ
Put plainly: SPR T200, antigen-Fc captured, molecule as analyte. The method, boiled down: as §2

Assay [8] deals with T6, mouse Fc-tagged mouse CD137 (R&D Systems, cat. 937-4B-050) (mouse, UniProt P20334 24-187).
T6 construct: also called mouse CD137-Fc chimeric protein
T6 sequence (looked up): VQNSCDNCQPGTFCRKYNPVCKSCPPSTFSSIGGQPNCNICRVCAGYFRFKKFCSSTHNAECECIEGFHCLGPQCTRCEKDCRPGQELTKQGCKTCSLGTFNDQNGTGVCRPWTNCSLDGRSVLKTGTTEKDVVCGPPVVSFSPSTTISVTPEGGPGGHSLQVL
Nature of the assay: SPR T200, antigen-Fc captured, molecule as analyte. The method, boiled down:
as §2

B1: PRO1186 (37-20-B03 sc01 / 38-02-A04 sc01 / 23-13-A01 sc03, scDb-scFv) (other)
chain: DIQMTQSPSSLSASVGDRVTITCQASQSIGTYLAWYQQKPGKAPKLLIYRAFILASGVPSRFSGSGSGTDFTLTISSLQPEDFATYYCQSNFYSDSTTIGPNAFGTGTKVTVLGGGGGSQVQLQESGPGLVKPSETLSLTCKVSGFSFSNSYWICWIRQPPGKGLEWIGCTFVGSSDSTYYANWAKGRVTISVDSSKNQFSLKLSSVTAADTAVYYCARHPSDAVYGYANNLWGQGTLVTVSSGGGGSGGGGSGGGGSGGGGSIQMTQSPSSLSASVGDRVTITCQASQSINNVLAWYQQKPGKAPKLLIYRASTLASGVPSRFSGSGSGTDFTLTISSLQPEDFATYYCQSSYGNYGDFGTGTKVTVLGGGGGSQVQLQESGPGLVKPSETLSLTCKVSGFSFNSDYWIYWIRQPPGKGLEWIGSIYGGSSGNTQYASWAQGRVTISVDSSKNQFSLKLSSVTAADTAVYYCARGYVDYGGATDLWGQGTLVTVSSGGGGSGGGGSVVMTQSPSSLSASVGDRVTITCQASQIISSRSAWYQQKPGQPPKLLIYQASKLASGVPSRFSGSGSGTDFTLTISSLQPEDFATYYCQCTYIDSNFGAFGGGTKLTVLGGGGGSGGGGSGGGGSGGGGSEVQLVESGGGLVQPGGSLRLSCAASGFSFSSSYWICWVRQAPGKGLEWVGCVFTGDGTTYYASWAKGRFTISRDNSKNTVYLQMNSLRAEDTATYFCARPVSVYYYGMDLWGQGTLVTVSS
notes: Trispecific scDb-scFv
On to B1, for which, in assay [1], the “max. activation, HCC827 +IFNg, 24h” value was 129%; the “max. activation, NF-kB reporter gene, CHO-PD-L1, 24h” value was 152%; the “rel. IC50 (urelumab/test), HCC827 +IFNg, 24h” value was found to be 1.88 ratio; the “rel. IC50 (urelumab/test), NF-kB reporter gene, CHO-PD-L1, 24h” value stood at 0.97 ratio. Moreover, in the assay with human serum albumin, the Kd turned out to be 2.9 nM, the off-rate (koff) is 0.00072 s⁻¹ and the kon worked out at 250000 M⁻¹ s⁻¹. In the assay with mouse serum albumin, this molecule came in with a dissociation constant (Kd) of 43 nM, a koff of 0.0095 s⁻¹ and a kon of 220000 M⁻¹ s⁻¹. Moreover, in [2], binding was put at a Kd of 0.0037 nM, the dissociation rate constant (koff) was 2.3e-05 s⁻¹ and the kon is 6.2e+06 M⁻¹ s⁻¹. In addition, in assay [3], the Kd is 2.6 nM, the koff came out at 0.0005 s⁻¹ and the association rate constant (kon) came to 190000 M⁻¹ s⁻¹.

B2: PRO963 (38_02_A04 sc01 scDb-i/33-03-G02 sc01 scDb-o/19-01-H04-sc03 scFv) (other)
chain: DIQMTQSPSSLSASVGDRVTITCQASQSINDYLAWYQQKPGKAPKLLIYKASTLASGVPSRFSGSGSGTDFTLTISSLQPEDFATYYCQQGYIITDIDNVFGTGTKVTVLGGGGGSQVQLQESGPGLVKPSETLSLTCKVSGFSFSNSYWICWIRQPPGKGLEWIGCTFVGSSDSTYYANWAKGRVTISVDSSKNQFSLKLSSVTAADTAVYYCARHPSDAVYGYANNLWGQGTLVTVSSGGGGSGGGGSGGGGSGGGGSIQMTQSPSSLSASVGDRVTITCQASQSINNVLAWYQQKPGKAPKLLIYRASTLASGVPSRFSGSGSGTDFTLTISSLQPEDFATYYCQSSYGNYGDFGTGTKVTVLGGGGGSQVQLQESGPGLVKPSETLSLTCKVSGFSFSSGYDMCWIRQPPGKGLEWIGCVVAGSVDITYYASWAKGRVTISVDSSKNQFSLKLSSVTAADTAVYYCARKDAYSDAFNLWGQGTLVTVSSGGGGSGGGGSIQMTQSPSSLSASVGDRVTITCQSSESVYSNNQLSWYQQKPGQPPKLLIYDASDLASGVPSRFSGSGSGTDFTLTISSLQPEDFATYYCAGGFSSSSDTAFGGGTKLTVLGGGGGSGGGGSGGGGSGGGGSEVQLVESGGGLVQPGGSLRLSCAASGFSLSSNAMGWVRQAPGKGLEYIGIISVGGFTYYASWAKGRFTISRDNSKNTVYLQMNSLRAEDTATYFCARDRHGGDSSGAFYLWGQGTLVTVSS
notes: Trispecific scDb-scFv (PDL1 x CD137 x SA); also called PRO096 (= PRO1051)
In the assay with human serum albumin, B2 registered a Kd of 2.8 nM, a koff of 0.0003 s⁻¹ and a kon of 110000 M⁻¹ s⁻¹. Besides, the binding result with mouse serum albumin is “no binding”. In assay [2], this molecule returned a Kd of 0.066 nM, a koff of 0.00013 s⁻¹ and an on-rate constant (kon) of 2e+06 M⁻¹ s⁻¹. Moreover, in [3], the Kd worked out at 3 nM, the dissociation rate constant (koff) worked out at 0.00062 s⁻¹ and the kon is 200000 M⁻¹ s⁻¹.

B3: PRO1057 (38_02_A04 sc01 scDb-i/33-03-G02 sc01 scDb-o/mxr HSA (23-13-A01-sc03, sk17sh4)) (other)
chain: DIQMTQSPSSLSASVGDRVTITCQASQSINDYLAWYQQKPGKAPKLLIYKASTLASGVPSRFSGSGSGTDFTLTISSLQPEDFATYYCQQGYIITDIDNVFGTGTKVTVLGGGGGSQVQLQESGPGLVKPSETLSLTCKVSGFSFSNSYWICWIRQPPGKGLEWIGCTFVGSSDSTYYANWAKGRVTISVDSSKNQFSLKLSSVTAADTAVYYCARHPSDAVYGYANNLWGQGTLVTVSSGGGGSGGGGSGGGGSGGGGSIQMTQSPSSLSASVGDRVTITCQASQSINNVLAWYQQKPGKAPKLLIYRASTLASGVPSRFSGSGSGTDFTLTISSLQPEDFATYYCQSSYGNYGDFGTGTKVTVLGGGGGSQVQLQESGPGLVKPSETLSLTCKVSGFSFSSGYDMCWIRQPPGKGLEWIGCVVAGSVDITYYASWAKGRVTISVDSSKNQFSLKLSSVTAADTAVYYCARKDAYSDAFNLWGQGTLVTVSSGGGGSGGGGSVVMTQSPSSLSASVGDRVTITCQASQIISSRSAWYQQKPGQPPKLLIYQASKLASGVPSRFSGSGSGTDFTLTISSLQPEDFATYYCQCTYIDSNFGAFGGGTKLTVLGGGGGSGGGGSGGGGSGGGGSEVQLVESGGGLVQPGGSLRLSCAASGFSFSSSYWICWVRQAPGKGLEWVGCVFTGDGTTYYASWAKGRFTISRDNSKNTVYLQMNSLRAEDTATYFCARPVSVYYYGMDLWGQGTLVTVSS
notes: Trispecific scDb-scFv
B3: in assay [4], the “EC50 NFkB-luciferase, CHO-PDL1 cells, 6 h, + HSA” value was 0.112 µg/mL and the “Top of curve fit, NFkB-luciferase, CHO-PDL1 cells, 6 h, + HSA” value was 463. In assay [5], the “EC50 NFkB-luciferase, CHO-PDL1 cells, 24 h, + HBA (so in the source)” value amounted to 0.792 µg/mL and the “Top of curve fit, NFkB-luciferase, CHO-PDL1 cells, 24 h, + HBA (so in the source)” value amounted to 745. Moreover, in assay [6], the “EC50 NFkB-luciferase, HCC827 with IFNy stimulation, +HSA” value stood at 0.115 µg/mL and the “EC50 NFkB-luciferase, HCC827 without IFNy stimulation, +HSA” value is 0.0766 µg/mL. Further, in assay [1], the “max. activation, HCC827 +IFNg, 24h” value was 135%; the “max. activation, NF-kB reporter gene, CHO-PD-L1, 24h” value was 663%; the “rel. IC50 (urelumab/test), HCC827 +IFNg, 24h” value came to 0.46 ratio; the “rel. IC50 (urelumab/test), HCC827 -IFNg, 24h” value is 0.62 ratio. Further, the “rel. IC50 (urelumab/test), NF-kB reporter gene, CHO-PD-L1, 24h” value in assay [1] stood at 0.1 ratio. In the assay with human serum albumin, this molecule had a Kd of 2.8 nM, a koff of 0.00067 s⁻¹ and a kon of 240000 M⁻¹ s⁻¹. Further, in the assay with mouse serum albumin, the affinity, expressed as Kd, was 66 nM; the koff stood at 0.0085 s⁻¹; the kon is 130000 M⁻¹ s⁻¹. Besides, in [2], binding was characterised by a dissociation constant (Kd) of 0.11 nM, the koff came out at 0.00017 s⁻¹ and the kon is 1.6e+06 M⁻¹ s⁻¹. Also, in assay [3], the Kd amounted to 5.1 nM, the koff is 0.0007 s⁻¹ and the association rate constant (kon) was determined as 140000 M⁻¹ s⁻¹. In assay [7], this molecule had a Kd of 4.8 nM, a koff of 0.00079 s⁻¹ and a kon of 160000 M⁻¹ s⁻¹. Besides, in assay [8], the dissociation constant Kd stood at 1200 nM, the koff came out at 0.085 s⁻¹ and the kon turned out to be 69000 M⁻¹ s⁻¹.
